The data set is described as follows: soluble on expression in E. coli; label from the status in PepcDB or PDB records.
As to “MDRAPVSSRRPCASQDPQRRPLCREEEGATPTALAVSSTTLGGRGGAHMCSCTVSSPNREGTCSSNILSYTLTHSTSPVVPWGCGRQPNHLQAPPRLAPLTESPIVARGFGPPPIAPAPLALAESSEHALCAPQLTFTAGAPGGTCLCSARSALPLLPFSSVLTASQRATPVPVWRRSKPLTRLPATTLGPTLSGNSGSPDDVVVALSDASMPKGETGEWMCAEASLQPSAAEPTPNAGSAVRHVDYQAAATQTGCVGSSLAAKVATESSQMALPDALAHLVEPPQGASAPSKTATDQLVNAPVGDIELRKRREEDSSDARASLSSALSSLGHPSNHNVHSSVDGVLWAHEAPEQPAYAHQHQLPAIFSQLVQDLLAAEPRADVEGDDDLLERWIQSWFENRCMTQPLQQSRSNSMKHLRTLQEAAVGAIANGAYVQGARSSNYVEPREKPAVDKNVGDATHAGPAARPAAGPSTTISASAAVTRTTTKSASAQLFPSSTAASPPHQYVPLTVEYSCSTLQSRMTSGASQRATSPPKPPQAQPLPVSPGTLHTAGASSTPGPPPHSAADGGGGVLAAVVGLSSPPQQPQQQPQPAKPLSGGPHLPAPASTRSMSSKQTVVAAAALAGGGEGDKGASGARPKLATTACAVFAHSSSSSAPKEAAHPHE”, the “soluble on expression in E. coli” value is given as “soluble”.
As for “MGSDKIHHHHHHMNEFIASIKSATASLHTQLEQSEISNVIMSQLVTEKAYAEYLSRIQCMHEDIEKHTFPIIHTIIKDTAQRTKSTAIAADLDQLKYASAVNKTFLDAAHSPDLNFNLGLMYVTEGSVLGGQVILKNIKKQLGEDIASRFLNVYGQQTGHLWRSFLIQLSEYQSTLSEKEKMTIIDGAKYGFERVYSILM”, the “soluble on expression in E. coli” value is given as “not soluble”.
The same measure for “MAHHHHHHSLNDYTQQLQGKKDYLKTLFAGLDVPEWEVYESPDKHYRMRAEFRIWHEGGEMFYAMFEKGQKASGASMIRCDRFEAASEAVNRLMPELIAAAAQSPELKKRWYAVEFLSTLSGEMLVTMIYHKRLDAEWMQAAQALQQQLDISVIGRSRGQKIVLKQDYVTETLKVGNRDFRYRQIEGSFTQPNAAVCQKMLEWACRTAEGLGSDLLELYCGNGNFTLPLSRYFRQVLATEISKTSVSAAQWNIEANRIGNIKIARLSAEEFTEAYTGKREFKRLKDGGIALTDYAFSTIFVDPPRAGIDEETLKLVSQFDNIIYISCNPETLRANLDTLAETHAVERAALFDQFPFTHHIESGVLLKKKILEG”: “soluble”; for “MSLSGETELTFWTFSGLHEQFYVEMVKEWNKKYPDRKIKLNTVVYPYGQMHDNLSISLIAGEGVPDIADVELARFSNFLKGSDIPLADLTPLIEKDRDKFVEARLTLYSKNGKLYGLDTHVGTTVMFYNMDVMKKAGVNPDDIKTWDDYHKAGQKVRKVTGKPMGTVETNDSATFLSMISQQNSGYFDKNGKLILNNDTNVKTLQYLKDMINDKTMIPAPGGGHHSEEYYGFMNQGGAASVLMPIWYMGRFIDYMPDLKGKIAIRPLPAWKEGGDRSAGLGGTATVVPKQSKHVELAKEFLAFAKGSEEGNKKLWSVLGFDPLRWDVWSSKELKEKNKYTDYFQNGTGIFSVLLDIKDEINPIYLHEDFAKASDLVNRSVLFDALKSQQKTPKQALDRAAGELKQKEGHHHHHH”: “soluble”.
The same measure for “MAHHHHHHMQQASAAASDEWRTKFGGGGASHDWQASKGNFTNQEFESYWGQKWPNWLKTEKATYPNAANKKWLEQNPPPKQGPAQAKTAKQLAVYAEEAAALARTYTEGITAAHGRELKAIKTALRAALYGTNKKTARAFRR”: “soluble”; for “MDSHQQPYASQAQADTTLFPEQTRESLQALAVKLQPLIEGHRLDNLVDLLSLLSDIVDLLDPAMVDRLAQLFEQVTSVGWSVGNAVRVAKAELLREQPPSLKDLLRLLRDADSRRGLALVLGSLRSLGRQLAAEQEVAHGA”: “not soluble”; for “MSLADLFASPDDAAAGGAPDTAPLADRLRPRTLGDVVGQEHLTGPDGAIGRMVAAGRLSSIIFWGPPGTGKTTISRLLAHAVGMRFEPISAVFSGVADLKKVFAAAKDHARHGEKTLLFVDEIHRFNRAQQDSFLPFVENGTVTLVGATTENPSFELNAALLSRAQVLILRRLDAAALEQLLDRAEGLMERPLPLDPAAREALLASADGDGRFLLNQVETLYAIDIPEPLDPAGLSALLHRRVAVYDKDREGHYNLISALHKSLRGSDPQAALYYLARMLTAGEEPLYVLRRLVRFATEDIGLADPQAVVQCLAAKDAYDFLGSPEGELAIVQACLYCATAPKSNAAYMAMKASFRSARETGSLMPPMNIVNAPTKLMKQVGYGKNYQYDHDAAEGFSGANYWPEEMEAQTFYAPTDRGFEARVAERMAYWDRLRAERGEGHHHHHH”: “soluble”.

The record behind these values is the DeepSol protein solubility set.
